# Measured values from US20220119534A1 (DRAGONFLY THERAPEUTICS, published 2022).
# Residue numbers refer to the chain shown, from its start. Names may count otherwise. “And” between values parts separate entries of the source, which are not always exact repeats. Equal values may be shown once.
# T1: Human CLEC12A-His (human, UniProt Q5QGZ9 65-265)
# T1 construct: Recombinant soluble protein made in house (Dragonfly Tx); The hCLEC12A spot of the HuProt array is written under this molecule as well; also called hCLEC12A-His; hCLEC12A; not shown: His tag
# T1 sequence: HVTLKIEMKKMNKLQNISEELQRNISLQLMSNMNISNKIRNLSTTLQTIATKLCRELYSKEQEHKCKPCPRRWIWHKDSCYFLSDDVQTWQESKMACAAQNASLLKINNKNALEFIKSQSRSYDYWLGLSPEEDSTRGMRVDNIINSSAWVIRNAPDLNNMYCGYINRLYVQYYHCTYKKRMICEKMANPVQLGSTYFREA
# T2: Human CLEC12A-His (recombinant, K244 WT) (human, UniProt Q5QGZ9 65-265)
# T2 construct: Made in house (Dragonfly Tx); also called hCLEC12A; hCLEC12A-His; not shown: His tag
# T2 sequence: T1 sequence
# T3: De-sialylated human CLEC12A (human, UniProt Q5QGZ9 65-265, treated with neuraminidase (terminal sialic acids removed))
# T3 construct: Same recombinant antigen as m2 after neuraminidase; also called De-sialylated CLEC12A
# T3 sequence: T1 sequence
# T4: De-glycosylated human CLEC12A (human, UniProt Q5QGZ9 65-265, treated with PNGaseF (N-linked glycans removed))
# T4 construct: Same recombinant antigen as m2 after PNGaseF; also called De-glycosylated CLEC12A
# T4 sequence: T1 sequence
# T5: recombinant human CLEC12A-His (human, UniProt Q5QGZ9 65-265)
# T5 construct: also called hCLEC12A-His; hCLEC12A
# T5 sequence: T1 sequence
# T6: recombinant human CD32a H131 (human, UniProt P12318 36-218, limits assumed, biotinylated)
# T6 construct: also called FcγRIIa H131
# T6 sequence (looked up): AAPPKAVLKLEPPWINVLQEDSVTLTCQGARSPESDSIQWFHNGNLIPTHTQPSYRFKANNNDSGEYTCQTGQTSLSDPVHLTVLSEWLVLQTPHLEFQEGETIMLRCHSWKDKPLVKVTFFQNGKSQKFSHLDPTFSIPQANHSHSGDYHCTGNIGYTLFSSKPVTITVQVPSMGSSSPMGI
# T7: recombinant human CD32a R131 (human, UniProt P12318 36-218, limits assumed, biotinylated)
# T7 construct: also called FcγRIIa R131
# T7 sequence (looked up): T6 sequence (looked up) with H132R
# T8: recombinant human CD32b (human, UniProt P31994 46-217, limits assumed, biotinylated)
# T8 construct: also called FcγRIIb
# T8 sequence (looked up): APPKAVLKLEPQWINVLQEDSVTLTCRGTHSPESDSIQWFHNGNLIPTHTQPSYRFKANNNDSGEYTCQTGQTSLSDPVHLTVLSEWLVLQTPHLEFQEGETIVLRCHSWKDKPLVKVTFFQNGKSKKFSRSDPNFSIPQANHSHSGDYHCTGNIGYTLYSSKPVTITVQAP
# B1: F3'-1602 TriNKET (bispecific antibody, human IgG1, kappa)
# chain: QLQLQESGPGLVKPSETLSLTCTVSGFSLTNYGLHWIRQPPGKCLEWIGVIWSGGKTDYNPSLKSRVTISKDTSKNQFSLKLSSVQAADTAVYYCAKYDYDDSLDYWGQGTLVTVSSGGGGSGGGGSGGGGSGGGGSDIQMTQSPSSLSASVGDRVTITCHASQNINFWLSWYQQKPGKAPKLLIYEASNLHTGVPSRFSGSGSGTRFTLTISSLQPEDIATYYCQQSHSYPLTFGCGTKLEIKGSDKTHTCPPCPAPELLGGPSVFLFPPKPKDTLMISRTPEVTCVVVDVSHEDPEVKFNWYVDGVEVHNAKTKPREEQYNSTYRVVSVLTVLHQDWLNGKEYKCKVSNKALPAPIEKTISKAKGQPREPRVYTLPPCRDELTKNQVSLTCLVKGFYPSDIAVEWESNGQPENNYKTTPPVLVSDGSFTLYSKLTVDKSRWQQGNVFSCSVMHEALHNHYTQKSLSLSPG
# heavy: EVQLVESGGGLVKPGGSLRLSCAASGFTFSSYSMNWVRQAPGKGLEWVSSISSSSSYIYYADSVKGRFTISRDNAKNSLYLQMNSLRAEDTAVYYCARGAPIGAAAGWFDPWGQGTLVTVSSASTKGPSVFPLAPSSKSTSGGTAALGCLVKDYFPEPVTVSWNSGALTSGVHTFPAVLQSSGLYSLSSVVTVPSSSLGTQTYICNVNHKPSNTKVDKKVEPKSCDKTHTCPPCPAPELLGGPSVFLFPPKPKDTLMISRTPEVTCVVVDVSHEDPEVKFNWYVDGVEVHNAKTKPREEQYNSTYRVVSVLTVLHQDWLNGKEYKCKVSNKALPAPIEKTISKAKGQPREPQVCTLPPSRDELTENQVSLTCLVKGFYPSDIAVEWESNGQPENNYKTTPPVLDSDGSFFLYSWLTVDKSRWQQGNVFSCSVMHEALHNHYTQKSLSLSPG
# light: DIQMTQSPSSVSASVGDRVTITCRASQGISSWLAWYQQKPGKAPKLLIYAASSLQSGVPSRFSGSGSGTDFTLTISSLQPEDFATYYCQQGVSFPRTFGGGTKVEIKRTVAAPSVFIFPPSDEQLKSGTASVVCLLNNFYPREAKVQWKVDNALQSGNSQESVTEQDSKDSTYSLSSTLTLSKADYEKHKVYACEVTHQGLSSPVTKSFNRGEC
# notes: Trispecific F3' format: CLEC12A scFv-Fc paired with NKG2D Fab-Fc; Stressed and control samples of the stability studies are the same molecule; also called AB0237
# B2: AB0089 TriNKET (bispecific antibody, human IgG1, kappa)
# chain: B1 chain with S53V, K56A, K71V, Y98G, D101G, S103T, R207D, I220F
# heavy: B1 heavy
# light: B1 light
# notes: F3' format heterodimer of three chains; human IgG1 Fc with EW-RVT and Y349C/S354C mutations; also called AB0089 Lot AB0089-002; CLEC12A TriNKET AB0089
# B3: F3'-1602 TriNKET (other)
# chain: B1 chain
# heavy: B1 heavy
# light: B1 light
# notes: CLEC12A scFv-Fc, NKG2D A49MI Fab-Fc, human IgG1 Fc; also called AB0237
# Legend:
# Human CLEC12A-His = target: T1, Human CLEC12A-His; experiment: SPR Biacore 8K 37 C; TriNKET captured on anti-hFc chip, hCLEC12A-His as analyte; 1:1 fit; after 4 wks 40 C in CST pH 7.0, n=2
# Method: Briefly, human Fc specific antibodies were covalently immobilized at a density ˜8000-10000 resonance units (RU) on carboxy methyl dextran matrix of a CM5 biosensor chip via amine-coupling chemistry to create an anti-hFc IgG chip. […] Association was monitored for 300 seconds and dissociation was monitored for 600 seconds. Surfaces were regenerated between cycles with three pulses of 10 mM glycine-HCl, pH 1.7 injected for 20 seconds at 100 μL/min. HBS-EP+ (1×) with 0.1 mg/mL BSA buffer was used throughout the experiment. Data were analyzed using Biacore 8K Insight evaluation software (GE Healthcare).
# [1] = target: T9, Human CD16a V158 (FcγRIIIa V158) (human, UniProt P08637 17-208, biotinylated (site not stated)); experiment: SPR; biotinylated CD16a V158 captured on SA chip, TriNKET as analyte; 1:1 kinetic fit; control sample
# T9 construct: V158 is the allele name in mature numbering; also called hCD16aV; hCD16a V158
# T9 sequence (P08637 17-208 F176V limits assumed): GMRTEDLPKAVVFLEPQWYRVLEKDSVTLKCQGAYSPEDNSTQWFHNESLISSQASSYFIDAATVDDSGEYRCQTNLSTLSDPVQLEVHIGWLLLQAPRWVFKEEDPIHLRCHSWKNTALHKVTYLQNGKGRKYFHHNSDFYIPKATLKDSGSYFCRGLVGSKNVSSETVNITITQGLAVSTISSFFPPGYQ
# [2] = target: T2, Human CLEC12A-His (recombinant, K244 WT); experiment: SPR, two-state fit; after 4 wks 40C in CST pH 7.0
# Method: (§1) Briefly, human Fc specific antibodies were covalently immobilized at a density ˜8000-10000 resonance units (RU) on carboxy methyl dextran matrix of a CM5 biosensor chip via amine-coupling chemistry to create an anti-hFc IgG chip. […] Association was monitored for 300 seconds and dissociation was monitored for 600 seconds. Surfaces were regenerated between cycles with three pulses of 10 mM glycine-HCl, pH 1.7 injected for 20 seconds at 100 μl/min. HBS-EP+ (1×) with 0.1 mg/ml BSA was used as running buffer throughout the experiment. Experiments were performed at physiological temperature of 37° C. To obtain kinetic rate constants and overall binding affinity, double-referenced data were fit to a two-state kinetic model using Biacore 8K Insight Evaluation software (Cytiva).
# [3] = target: T3, De-sialylated human CLEC12A; experiment: SPR, two-state fit (ka1)
# Method: as §1
# [4] = target: T4, De-glycosylated human CLEC12A; experiment: SPR, two-state fit (ka1)
# Method: as §1
# Human CD16b (FcγRIIIb) = target: T10, Human CD16b (FcγRIIIb) (human, UniProt O75015 17-200, limits assumed, biotinylated); experiment: SPR 25C, average
# T10 construct: Bought recombinant receptor; also called hFcγRIIIb; CD16b (FcγR3b)
# T10 sequence (O75015 17-200 limits assumed): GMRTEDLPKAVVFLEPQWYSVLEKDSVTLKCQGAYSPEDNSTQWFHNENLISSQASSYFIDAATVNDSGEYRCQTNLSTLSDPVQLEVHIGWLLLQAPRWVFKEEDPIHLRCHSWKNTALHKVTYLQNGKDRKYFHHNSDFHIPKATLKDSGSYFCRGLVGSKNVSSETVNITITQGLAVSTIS
# [5] = target: T5, recombinant human CLEC12A-His; experiment: SPR 37C
# [6] = target: T11, recombinant human CD16a V158 (human, UniProt P08637 17-208, biotinylated); experiment: SPR 25C, kinetic fit
# T11 construct: also called FcγRIIIa V158; hCD16aV
# T11 sequence (P08637 17-208 F176V limits assumed): as the sequence (P08637 17-208 F176V limits assumed) above
# [7] = target: T12, recombinant cynomolgus CD16 (cynomolgus monkey, UniProt Q8SPW2 17-208, biotinylated); experiment: SPR 25C, steady state, average
# T12 construct: also called cFcγRIII; cyno CD16
# T12 sequence (Q8SPW2 17-208 limits assumed): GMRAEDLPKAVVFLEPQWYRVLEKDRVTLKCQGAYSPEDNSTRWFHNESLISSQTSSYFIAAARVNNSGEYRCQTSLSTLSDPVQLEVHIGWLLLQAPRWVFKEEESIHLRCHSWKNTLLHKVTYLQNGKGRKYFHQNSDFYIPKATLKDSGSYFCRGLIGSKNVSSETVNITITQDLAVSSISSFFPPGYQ
# From the text: (§2) Human and cyno CD64, high and low affinity alleles of CD16a (V158 and F158, respectively), two alleles of CD32a (H131 and R131), CD16b, CD32b and cynomolgus CD16 were captured via biotin on a primed Biacore chip, prepared according to the manufacturer's instructions.
# recombinant human CD16b = target: T13, recombinant human CD16b (human, UniProt O75015 17-200, limits assumed, biotinylated); experiment: SPR, summary table
# T13 construct: also called FcγRIIIb
# T13 sequence (O75015 17-200 limits assumed): as the sequence (O75015 17-200 limits assumed) above
# From the text: as §2
# [8] = target: T6, recombinant human CD32a H131; experiment: SPR, summary table
# From the text: as §2
# [9] = target: T14, recombinant cynomolgus CD64 (cynomolgus monkey, UniProt A0A2K5U901 33-309, Biotinylated for capture on the CAP chip; the biotin site is not stated.); experiment: SPR, summary table
# T14 construct: also called cFcγRI; cyno CD64; not shown: The vendor's biotinylation and purification tag, used for capture via biotin
# T14 sequence (A0A2K5U901 entry or part of it limits assumed): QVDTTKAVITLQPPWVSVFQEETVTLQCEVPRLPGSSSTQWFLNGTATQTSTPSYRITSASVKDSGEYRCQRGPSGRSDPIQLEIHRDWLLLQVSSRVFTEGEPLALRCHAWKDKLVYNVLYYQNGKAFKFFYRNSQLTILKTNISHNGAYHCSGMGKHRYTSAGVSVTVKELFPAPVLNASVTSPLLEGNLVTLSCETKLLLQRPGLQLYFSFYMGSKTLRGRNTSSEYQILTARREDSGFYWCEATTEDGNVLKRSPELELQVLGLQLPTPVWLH
# recombinant human CD64 = target: T15, recombinant human CD64 (human, UniProt P12314 16-288, biotinylated); experiment: SPR, summary table
# T15 construct: also called hFcγRI; hCD64
# T15 sequence (P12314 16-288 limits assumed): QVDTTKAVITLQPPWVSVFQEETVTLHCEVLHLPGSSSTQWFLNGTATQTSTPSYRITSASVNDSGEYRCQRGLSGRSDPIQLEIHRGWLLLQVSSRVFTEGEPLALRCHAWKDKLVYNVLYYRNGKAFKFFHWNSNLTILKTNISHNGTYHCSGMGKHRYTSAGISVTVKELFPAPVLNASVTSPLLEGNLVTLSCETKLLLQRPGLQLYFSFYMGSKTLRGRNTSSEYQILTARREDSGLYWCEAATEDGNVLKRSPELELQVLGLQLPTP
# From the text: as §2
# [10] = target: T7, recombinant human CD32a R131; experiment: SPR, summary table
# From the text: as §2
# [11] = target: T16, recombinant human CD16a F158 (human, UniProt P08637 17-208); experiment: SPR, summary table
# T16 construct: also called FcγRIIIa F158
# T16 sequence (P08637 17-208 limits assumed): as the sequence (P08637 17-208 F176V limits assumed) above, with V160F counted along it
# From the text: as §2
# [12] = target: T12, recombinant cynomolgus CD16; experiment: SPR, summary table
# From the text: as §2
# recombinant human CD32b = target: T8, recombinant human CD32b; experiment: SPR, summary table
# From the text: as §2
# [13] = target: T11, recombinant human CD16a V158; experiment: SPR, summary table
# From the text: as §2
# [14] = target: T16, recombinant human CD16a F158; experiment: SPR 25C, steady state
binder,measurement,setting,value
B1,Kd,Human CLEC12A-His,0.86 nM
same,koff,Human CLEC12A-His,0.000674 s⁻¹
same,kon,Human CLEC12A-His,784000 M⁻¹ s⁻¹
same,Kd,[1],212 nM
same,koff,[1],0.024 s⁻¹
same,kon,[1],113000 M⁻¹ s⁻¹
B2,Kd,[2],1 nM
same,kon,[3],2.09e+07 M⁻¹ s⁻¹
same,kon,[4],8.96e+06 M⁻¹ s⁻¹
same,Kd,Human CD16b (FcγRIIIb),8900 nM
B3,Kd,[5],1.2 nM and 1.19 nM
same,koff,[5],0.000952 s⁻¹ and 0.000913 s⁻¹
same,kon,[5],791000 M⁻¹ s⁻¹ and 768000 M⁻¹ s⁻¹
same,Kd,[6],234 nM and 235 nM and 243 nM and 241 nM
same,koff,[6],0.022 s⁻¹ and 0.023 s⁻¹
same,kon,[6],96000 M⁻¹ s⁻¹ and 95000 M⁻¹ s⁻¹ and 93000 M⁻¹ s⁻¹
same,Kd,[7],306 nM
same,Kd,recombinant human CD16b,7500 nM
same,Kd,[8],900 nM
same,Kd,[9],2 nM
same,Kd,recombinant human CD64,5.2 nM
same,Kd,[10],1400 nM
same,Kd,[11],1110 nM
same,Kd,[12],306 nM
same,Kd,recombinant human CD32b,6600 nM
same,Kd,[13],238 nM
same,Kd,[14],1130 nM and 1120 nM and 1090 nM
